This is an account of results in paper PMC8262869, “The DnaK/DnaJ Chaperone System Enables RNA Polymerase-DksA Complex Formation in Salmonella Experiencing Oxidative Stress” (mBio, 2021).

To fix the notation:
B2: GST-DnaK (natural protein)
chain: not shown
notes: DnaK (Hsp70), Salmonella enterica serovar Typhimurium; dnaK cloned into BamHI and XhoI sites of pGEX-6P-1; source: E. coli BL21(DE3), purified (glutathione-Sepharose 4B)

The target of one experiment is T1, DnaJ ΔZn1-6×His (Salmonella enterica serovar Typhimurium, UniProt P0A1G7 1-379, C147S | C150S | C200S | C203S).
T1 construct: DnaJ, Salmonella enterica serovar Typhimurium; also called C147S C150S C200S C203S; not shown: 6×His, C-terminal, kept
Put plainly: pull-down; GST fusion (bait) on glutathione-Sepharose 4B beads, 50 mM Tris-HCl pH 7.5, 4°C, 2 h with C-terminally 6×His-tagged prey; wash 50 mM NaCl, elution 500 mM NaCl; anti-6×His immunoblot. Conditions: both partners purified.

The target in a further experiment is T2, DnaJ C186H-6×His (Salmonella enterica serovar Typhimurium, UniProt P0A1G7 1-379, C186H).
T2 construct: DnaJ, Salmonella enterica serovar Typhimurium; point mutant of full-length dnaJ in pET-22b(+); not shown: 6×His, C-terminal, kept
Described as above. Conditions: both partners purified.

For a further experiment, the target named is T3, DnaJ H33Q-6×His (Salmonella enterica serovar Typhimurium, UniProt P0A1G7 1-379, H33Q).
T3 construct: DnaJ, Salmonella enterica serovar Typhimurium; point mutant of full-length dnaJ in pET-22b(+); also called DnaJ H33Q recombinant variant; not shown: 6×His, C-terminal, kept
The description is as above. Conditions: both partners purified.

A further experiment deals with T4, DnaJ C268A-6×His (Salmonella enterica serovar Typhimurium, UniProt P0A1G7 1-379, C268A).
T4 construct: DnaJ, Salmonella enterica serovar Typhimurium; point mutant of full-length dnaJ in pET-22b(+); not shown: 6×His, C-terminal, kept
The description is as above. As to conditions: both partners purified.

The target of experiment [1] is E. coli holoenzyme RNA polymerase (E. coli, UniProt P0A7Z4 1-329; P0A8V2 1-1342). Put plainly: cell-based or functional assay.
The next experiment concerns the target T5, GST-DnaK T199A (Salmonella enterica serovar Typhimurium, UniProt Q56073 1-638, T199A).
T5 construct: DnaK (Hsp70), Salmonella enterica serovar Typhimurium; point mutant of dnaK in pGEX-6P-1; also called recombinant DnaK T199A variant; source: E. coli BL21(DE3), purified (glutathione-Sepharose 4B)
Put plainly: pull-down; GST fusion (bait) on glutathione-Sepharose 4B beads, 50 mM Tris-HCl pH 7.5, 4°C, 2 h with C-terminally 6×His-tagged prey; wash 50 mM NaCl, elution 500 mM NaCl; anti-6×His immunoblot. Conditions: both partners purified. For orientation: Immunoblotting shows a protein as a band on a membrane.

The experiment “GST-DnaK” has as its target B2. Described as above. Conditions: both partners purified.

B1: oxidized GST-DksA (natural protein)
chain: MQEGQNRKTSSLSILAIAGVEPYQEKPGEEYMNEAQLSHFKRILEAWRNQLRDEVDRTVTHMQDEAANFPDPVDRAAQEEEFSLELRNRDRERKLIKKIEKTLKKVEDEDFGYCESCGVEIGIRRLEARPTADLCIDCKTLAEIREKQMAG
modifications: cysteine residues oxidized (disulfide-bonded) by treatment with H2O2; positions not given
notes: DksA, Salmonella enterica serovar Typhimurium; dksA cloned into BamHI and XhoI sites of pGEX-6P-1; For the in vitro transcription assays the GST tag was removed with PreScission protease and oxidation was with 1 mM H2O2; also called oxidized DksA; source: E. coli BL21(DE3), purified (glutathione-Sepharose 4B); treated with 100 μM H2O2 for 1 h at 37°C
For the molecule B1, the binding result in the experiment with DnaJ ΔZn1-6×His, in the experiment with DnaJ C186H-6×His, in the experiment with DnaJ H33Q-6×His and with DnaJ C268A-6×His was “binds” throughout. Further, the “livJ in vitro transcription (qRT-PCR): 5 μM oxidized DksA (GST tag removed), 5 nM RNA polymerase, 50 nM DnaJ, upon addition of 500 nM untagged DnaK” value in experiment [1] is greater than 10 fold.

Regarding B2, in the experiment with DnaJ H33Q-6×His, the binding result is “binds”.

B3: DnaJ-6×His (natural protein, Salmonella enterica serovar Typhimurium, UniProt P0A1G7 1-379, looked up)
chain: MAKRDYYEILGVSKTAEEREIKKAYKRLAMKYHPDRNQGDKEAEAKFKEIKEAYEVLTDAQKRAAYDQYGHAAFEQGGMGGGFGGGFNGGADFSDIFGDVFGDIFGGGRGRQRAARGADLRYNMDLTLEEAVRGVTKEIRIPTLEECDVCHGSGAKAGTQPQTCPTCHGSGQVQMRQGFFAVQQTCPHCQGRGTLIKDPCHKCHGHGRVEKSKTLSVKIPAGVDTGDRIRLAGEGEAGEHGAPAGDLYVQVQVKQHPIFEREGNNLYCEVPINFAMAALGGEIEVPTLDGRVMLKVPSETQTGKLFRMRGKGVKSVRGGAQGDLLCRVVVETPVGLSEKQKQLLKDLQESFGGPTGEKNSPRSKSFFDGVKKFFDDLTR
notes: DnaJ, Salmonella enterica serovar Typhimurium; full-length dnaJ in NdeI and XhoI sites of pET-22b(+); also called wild-type DnaJ protein; C-terminally 6×His-tagged DnaJ; not shown: 6×His, C-terminal, kept
With B3, the binding result with GST-DnaK T199A and with GST-DnaK was “binds” each time.
